Literature values as cited in publication PMC8227800.

Target: Cdh2 (Danio rerio) (UniProt Q90275)

Substance: Cdh2 (from UniProt Q90275)
- Kd: 200 nM
